In US20140193434A1 (TORAY INDUSTRIES, published 2014):

T1: human CAPRIN-1 protein on the cell membrane surface of human cancer cell lines (human, UniProt Q14444 2-709)
T1 sequence (looked up): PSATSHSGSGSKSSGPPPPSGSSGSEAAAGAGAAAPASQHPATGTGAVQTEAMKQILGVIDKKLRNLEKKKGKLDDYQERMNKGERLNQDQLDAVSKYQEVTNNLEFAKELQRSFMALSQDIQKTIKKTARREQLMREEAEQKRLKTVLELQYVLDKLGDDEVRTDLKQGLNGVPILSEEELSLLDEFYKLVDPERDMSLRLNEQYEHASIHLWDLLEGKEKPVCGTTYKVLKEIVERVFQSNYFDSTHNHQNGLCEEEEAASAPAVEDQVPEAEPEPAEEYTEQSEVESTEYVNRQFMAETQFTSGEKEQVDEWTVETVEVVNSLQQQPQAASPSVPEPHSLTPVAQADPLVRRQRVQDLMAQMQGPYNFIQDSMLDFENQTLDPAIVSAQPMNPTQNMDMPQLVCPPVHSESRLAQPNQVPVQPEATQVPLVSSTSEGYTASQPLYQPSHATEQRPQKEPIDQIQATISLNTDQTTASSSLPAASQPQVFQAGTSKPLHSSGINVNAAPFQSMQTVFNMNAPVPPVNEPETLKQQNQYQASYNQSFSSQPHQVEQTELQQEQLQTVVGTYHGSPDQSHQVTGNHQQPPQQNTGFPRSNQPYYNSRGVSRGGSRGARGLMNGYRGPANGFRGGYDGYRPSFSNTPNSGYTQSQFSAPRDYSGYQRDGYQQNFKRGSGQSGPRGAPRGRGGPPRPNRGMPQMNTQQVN


Target: T1, human CAPRIN-1 protein on the cell …
Test: cell-based or functional assay

Binder | cytotoxic activity (ADCC, chromium 51 release) against MCF7, HCT-116, MIAPaCa-2, Caki-2 and QG56 [%]
human-mouse chimeric comparative monoclonal antibody 7 (antibody, human IgG1, kappa, V domains shown) VH: LQESGAELARPGASVKLSCKASGYTFTSYWMQWVKQRPGQGLEWIGAIYPGDGDTRYTQKFKGKATLTADKSSSTAYMQLSSLASEDSAVYYCARGEYGNYFAYWGQGTTVTVSS VL: TSDASLGERVTITCKASQDINSYLSWFQQKPGKSPKTLIYRANRLVDGVPSRFSGSGSGQDYSLTISSLEYEDMGIYYCLQYDEFPLTFGGGTKLEIKQ | < 5
human-mouse chimeric comparative monoclonal antibody 1 (antibody) heavy: not shown light: DIQMTQSPASLSASVGETVTITCRASGNIHNYLAWYQQKQGKSPQLLVYNAKTLADGVPSRFSGSGSGTQYSLKINSLQPEDFGSYYCQHFWSTLTFGAGTKLELKRTVAAPSVFIFPPSDEQLKSGTASVVCLLNNFYPREAKVQWKVDNALQSGNSQESVTEQDSKDSTYSLSSTLTLSKADYEKHKVYACEVTHQGLSSPVTKSFNRGEC | < 5
human-mouse chimeric comparative monoclonal antibody 3 (antibody, human IgG1, kappa) heavy: not shown light: RTTSHMDSDIQLTQSPASLSASVGETVTITCRASGNIHNYLAWYQQKQGKSPQLLVYNAKTLADGVPSRFSGSGSGTQYSLKINSLQPEDFGSYYCQHFWSTLTFGGGTKLEIKQSDTVAAPSVFIFPPSDEQLKSGTASVVCLLNNFYPREAKVQWKVDNALQSGNSQESVTEQDSKDSTYSLSSTLTLSKADYEKHKVYACEVTHQGLSSPVTKSFNRGEC | < 5
human-mouse chimeric comparative monoclonal antibody 4 (antibody, human IgG1, kappa, V domains shown) VH: EVQLHQFGAELVKPGASVKISCKASGYTFTDYNMDWVKQSHGKSLEWIGDINPNYDSTSYNQKFKGKATLTVDKSSSTAYMELRSLTSEDTAVYYCARSRSYDYEGFAYWGQGTLVTVSA VL: SGDRVSLSCRASQSISNYLHWYQQKSHESPRLLIKYASQSISGIPSRFSGSGSGTDFTLSINSVETEDFGMYFCQQSNSWPYTFGAGTKLEIKQ | < 5
